Assay results published in PMC3561355, “NMR Structure of Integrin α4 Cytosolic Tail and Its Interactions with Paxillin” (PLoS ONE, 2013).

B1: integrin α4 cytosolic tail (Lys968-Asp999) (domain or fragment)
chain: KAGFFKRQYKSILQEENRRDSWSYINSKSNDD
notes: Used 15N-labelled or unlabelled in the HSQC experiments; also called α4 CT; full-length α4 CT; source: E. coli BL21(DE3), KSI fusion from inclusion bodies, purified (Ni-NTA, cyanogen bromide cleavage, HPLC); not shown: His6, N-terminal, cleaved; ketosteroid isomerase (KSI), N-terminal, cleaved
B2: paxillin LD3-containing peptide (peptide)
peptide: VRPSVESLLDELESSVPSPV
notes: paxillin stretch holding the LD3 repeat; also called peptide-containing LD3; source: synthetic peptide, bought: GL Biochem (Shanghai), further purified by reverse phase HPLC
B3: paxillin fragment residues G139-K277 (PaxLD2-LD4) (domain or fragment)
chain: MGSNLSELDRLLLELNAVQHNPPGFPADEANSSPPLPGALSPLYGVPETNSPLGGKAGPLTKEKPKRNGGRGLEDVRPSVESLLDELESSVPSPVPAITVNQGEMSSPQRVTSTQQQTRISASSATRELDELMASLSDFK
notes: initiation Met introduced before G139; paxillin residues G139-K277, holding the LD2, LD3 and LD4 repeats; Used 15N-labelled or unlabelled; also called recombinant paxillin (residues G139-K277 encompassing LD2-LD4); source: E. coli BL21(DE3), purified (NTA beads, HPLC)
B4: paxillin LD4-containing peptide (peptide)
peptide: ATRELDELMASLSDFKFMAQ
notes: paxillin stretch holding the LD4 repeat; runs four residues (FMAQ) beyond K277, the end of PaxLD2-LD4; also called peptide-containing LD4; source: synthetic peptide, bought: GL Biochem (Shanghai), further purified by reverse phase HPLC

Columns and labels:
Conditions in all cases: both partners purified
[1] = molecular target: B3; assay: NMR titration; 15N-1H HSQC of 15N-labelled PaxLD2-LD4 (200 µM) without and with unlabelled α4 CT, molar ratios 1:1 and 1:2; 10 mM sodium phosphate, pH 6.5, 298 K
[2] = molecular target: B1; assay: NMR titration; 15N-1H HSQC of 15N-labelled α4 CT without and with unlabelled synthetic LD-containing peptides, ratio 1:4 (α4 CT:peptides)
[3] = molecular target: B1; assay: NMR titration; 15N-1H HSQC of 15N-labelled α4 CT (100 µM) without and with unlabelled PaxLD2-LD4, molar ratios 1:1 and 1:2; 10 mM sodium phosphate, pH 6.5, 298 K

Row | Binder | binding result [2] | further results
1 | B1 | – | binding result [1]: binds
2 | B2 | binds | –
3 | B3 | – | binding result [3]: binds
4 | B4 | binds | –
